Test [1] has as its target SscR^Ac after H2Sn treatment (persulfidated SscR^Ac) (Acidithiobacillus caldus). In words: SEC. Background: Size exclusion chromatography separates by hydrodynamic size, large species first.
The target in test [2] is SscR^Ac (RSS-sensitive transcription factor in copper stress response), MarR family transcriptional regulator of Acidithiobacillus caldus (Acidithiobacillus caldus). The test can be described thus: SEC.

As usually defined, the stoichiometry N is the number of molecules, sites or subunits per partner or assembly. For “SscR^Ac after H2Sn treatment (persulfidated SscR^Ac) (natural protein)”, the stoichiometry N in test [1] worked out at 4.
For “SscR^Ac (RSS-sensitive transcription factor in copper stress response), MarR family transcriptional regulator of Acidithiobacillus caldus (natural protein)”, in test [2], the stoichiometry N worked out at 4.

Source of the values: PMC12455602.
